Laboratory results as given in US20260258125A1 (NONA BIOSCIENCES SUZHOU, published 2026).
Residue numbers refer to the chain shown, from its start.

T1: human CEACAM8 protein (human, UniProt P31997 35-320)
T1 construct: Bought protein; also called huCEACAM8
T1 sequence (looked up): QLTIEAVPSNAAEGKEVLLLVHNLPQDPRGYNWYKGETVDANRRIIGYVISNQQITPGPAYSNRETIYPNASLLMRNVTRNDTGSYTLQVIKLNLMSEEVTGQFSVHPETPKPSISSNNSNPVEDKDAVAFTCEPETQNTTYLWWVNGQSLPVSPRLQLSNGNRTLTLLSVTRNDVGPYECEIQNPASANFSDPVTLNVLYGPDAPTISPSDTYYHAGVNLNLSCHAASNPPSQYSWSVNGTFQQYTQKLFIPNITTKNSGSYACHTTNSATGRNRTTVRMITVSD

T2: human CEACAM5 on 293T cells (293T-huCEACAM5 cells) (human, UniProt P06731 35-685)
T2 construct: whole, on cells
T2 sequence (looked up): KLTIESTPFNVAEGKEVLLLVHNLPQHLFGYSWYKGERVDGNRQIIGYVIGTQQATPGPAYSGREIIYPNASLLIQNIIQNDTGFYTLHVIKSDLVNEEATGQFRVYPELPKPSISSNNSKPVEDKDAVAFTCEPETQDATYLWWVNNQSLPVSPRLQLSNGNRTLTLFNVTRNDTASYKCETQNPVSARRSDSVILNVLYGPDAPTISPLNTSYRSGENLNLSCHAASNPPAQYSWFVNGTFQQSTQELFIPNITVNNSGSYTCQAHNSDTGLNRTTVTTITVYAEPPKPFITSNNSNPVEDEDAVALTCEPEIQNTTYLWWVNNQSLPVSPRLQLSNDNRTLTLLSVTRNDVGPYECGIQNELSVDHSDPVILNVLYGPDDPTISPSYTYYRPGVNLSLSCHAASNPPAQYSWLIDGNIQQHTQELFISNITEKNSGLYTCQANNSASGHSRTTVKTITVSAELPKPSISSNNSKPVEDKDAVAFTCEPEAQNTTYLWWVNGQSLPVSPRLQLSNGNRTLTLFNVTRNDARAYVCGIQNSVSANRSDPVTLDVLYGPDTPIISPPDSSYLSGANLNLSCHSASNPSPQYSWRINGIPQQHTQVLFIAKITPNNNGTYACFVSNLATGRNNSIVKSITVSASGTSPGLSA

T3: human CEACAM3 protein (human, UniProt P40198 35-155)
T3 construct: Bought protein; also called huCEACAM3
T3 sequence (looked up): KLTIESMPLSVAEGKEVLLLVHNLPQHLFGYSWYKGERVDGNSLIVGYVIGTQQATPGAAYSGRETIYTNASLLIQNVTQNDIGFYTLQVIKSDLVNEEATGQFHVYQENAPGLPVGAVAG

B1: PR304294 (antibody, human IgG1, kappa, V domains shown)
VH: EVQLLESGGGLVQPGGSLRLSCAASGFTFSSYAMSWVRQAPGKGLEWVSAISGTTYNTYYAGSVKGRFTISRDNSKNTLYLQMNSLRAEDTAVYYCAKGISVAGYYYYGMDVWGQGTTVTVSS
VL: EIVMTQSPATLSVSPGERATLSCRASQSVISNLAWYQQKPGQAPRLLIYGASTRATGIPARFSGSGSGTEFTLTISSLQSEDFAVYYCHQYNNWPLTFGGGTKVEIKR
notes: Recombinant full antibody
B2: PR304171 (antibody, human IgG1, kappa, V domains shown)
VH: not shown
VL: B1 VL with S28N, Y36H, G50T, A51T, H89Q
notes: Recombinant full antibody

Tests used:
human CEACAM8 protein [1] = target: T1, human CEACAM8 protein; assay: ELISA, human CEACAM8 protein coated on the plate, anti-human Fc-HRP, OD450
Text: Binding of recombinant anti-CEACAM5/6 dual-binding monoclonal antibodies against human and cynomolgus CEACAM5, and human CEACAM6 (Uniprot P40199), human CEACAM 1, 3 (NP_001806.2, Sino Biological 11933-H08H) and 8 (NP_001807.2, Acro Bio CE8-H5224) were detected by ELISA. Anti-CEACAM5/6 dual-antibodies were serially diluted in staining buffer (PBS containing 2% FBS). […] ELISA was used to test the binding between antibody containing supernatant or purified antibodies and the antigen. Briefly, the antigens were coated on a 96-well high binding plate overnight at 4° C. The plate was washed with PBST three times, incubated with blocking buffer (2% Bovine Serum Albumin) for one hour at 37° C., washed with PBST three times and incubated with antibody containing supernatant or purified antibodies at desired dilutions or concentrations for one hour at 37° C. A secondary antibody, anti-human Fc-HRP (Jackson Laboratory, 109-035-097) was used for detection of the targeted antibody. TMB and stopping solution were used for detection of HRP signal. The HRP signal was read on a SPECTRAMAX plate reader.

[2] = target: T2, human CEACAM5 on 293T cells …; assay: flow cytometry on 293T-huCEACAM5 cells with against without 100 nM soluble CEACAM5
human CEACAM3 protein = target: T3, human CEACAM3 protein; assay: ELISA, antigen coated on plate
human CEACAM8 protein [3] = target: T1, human CEACAM8 protein; assay: ELISA, antigen coated on plate

Binder	binding result (human CEACAM8 protein [1])	fold change of EC50 at the presence of 100 nM soluble protein [2] [fold]	binding result (human CEACAM3 protein)	binding result (human CEACAM8 protein [3])
B1	no binding (tested: 10 nM)	4.1	–	–
B2	–	–	no binding	no binding
